Reference: article PMC8602292, “Acyl carrier protein promotes MukBEF action in Escherichia coli chromosome organization-segregation” (Nature Communications, 2021)

Legend:
[1] = biological target: the molecule itself; assay: native MS; mixtures of MukB, MukE, MukF and AcpP at various concentrations of MukB; 200 mM ammonium acetate pH 8.0
[2] = biological target: T1, MukB (wild type, MukB-His) (Escherichia coli, UniProt P22523 1-1486); assay: as above; details: both partners purified
T1 construct: MukB, the SMC protein of Escherichia coli MukBEF; wild type; The end of the tag is read from the printed name 'MukB-His'; The same construct was used with co-purified AcpP or depleted of AcpP by an extended salt gradient on heparin; also called WT MukB; AcpP-depleted MukB; source: E. coli C3013I (NEB), pET vector, purified (TALON, HiTrap Heparin, Superdex 200); not shown: His tag, C-terminal, kept
T1 sequence (looked up): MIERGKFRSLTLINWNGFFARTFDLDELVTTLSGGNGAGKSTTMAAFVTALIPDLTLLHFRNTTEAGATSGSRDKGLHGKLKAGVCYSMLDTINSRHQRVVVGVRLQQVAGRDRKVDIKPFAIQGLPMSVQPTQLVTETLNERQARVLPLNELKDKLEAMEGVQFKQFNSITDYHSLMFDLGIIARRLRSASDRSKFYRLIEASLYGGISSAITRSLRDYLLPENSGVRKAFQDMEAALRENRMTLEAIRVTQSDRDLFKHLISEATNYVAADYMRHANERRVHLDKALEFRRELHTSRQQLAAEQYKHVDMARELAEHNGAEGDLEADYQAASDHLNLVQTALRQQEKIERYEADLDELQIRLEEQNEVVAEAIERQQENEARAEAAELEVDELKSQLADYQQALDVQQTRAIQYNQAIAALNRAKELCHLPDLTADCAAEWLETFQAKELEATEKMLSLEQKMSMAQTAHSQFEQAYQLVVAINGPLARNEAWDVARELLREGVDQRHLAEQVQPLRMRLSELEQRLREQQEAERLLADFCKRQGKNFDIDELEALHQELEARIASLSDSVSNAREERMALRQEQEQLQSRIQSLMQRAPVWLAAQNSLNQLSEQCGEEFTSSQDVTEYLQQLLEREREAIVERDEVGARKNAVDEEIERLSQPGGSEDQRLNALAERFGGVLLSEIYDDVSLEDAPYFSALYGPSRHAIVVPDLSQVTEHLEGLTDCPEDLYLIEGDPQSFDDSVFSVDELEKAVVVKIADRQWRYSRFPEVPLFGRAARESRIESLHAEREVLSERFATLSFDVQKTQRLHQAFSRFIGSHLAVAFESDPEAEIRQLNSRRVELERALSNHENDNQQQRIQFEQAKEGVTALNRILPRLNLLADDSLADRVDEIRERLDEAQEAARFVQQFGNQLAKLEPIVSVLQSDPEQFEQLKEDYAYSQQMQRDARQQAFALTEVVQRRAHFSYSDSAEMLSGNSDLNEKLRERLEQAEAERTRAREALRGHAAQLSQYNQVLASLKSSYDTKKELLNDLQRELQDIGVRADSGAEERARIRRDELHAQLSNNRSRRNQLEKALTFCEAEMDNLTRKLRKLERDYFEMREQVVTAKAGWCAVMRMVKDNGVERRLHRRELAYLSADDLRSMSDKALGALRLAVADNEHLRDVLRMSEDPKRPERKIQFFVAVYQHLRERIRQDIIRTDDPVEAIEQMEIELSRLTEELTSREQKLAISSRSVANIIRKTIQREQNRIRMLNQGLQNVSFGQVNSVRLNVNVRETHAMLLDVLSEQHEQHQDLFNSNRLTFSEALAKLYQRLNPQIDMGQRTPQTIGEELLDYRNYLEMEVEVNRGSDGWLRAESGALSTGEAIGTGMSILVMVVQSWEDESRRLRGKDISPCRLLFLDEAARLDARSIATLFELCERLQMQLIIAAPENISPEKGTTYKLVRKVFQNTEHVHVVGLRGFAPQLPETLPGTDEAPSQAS

Binder | binding result [1] | binding result [2]
MukF (His-MukF) (natural protein, Escherichia coli, UniProt P60293 1-440, looked up, MukF, the kleisin of Escherichia coli MukBEF; The end of the tag is read from the printed name 'His-MukF'; also called kleisin MukF; source: E. coli C3013I (NEB), pET vector, purified (TALON, HiTrap DEAE FF, Superdex 200)) MSEFSQTVPELVAWARKNDFSISLPVDRLSFLLAVATLNGERLDGEMSEGELVDAFRHVSDAFEQTSETIGVRANNAINDMVRQRLLNRFTSEQAEGNAIYRLTPLGIGITDYYIRQREFSTLRLSMQLSIVAGELKRAADAAEEGGDEFHWHRNVYAPLKYSVAEIFDSIDLTQRLMDEQQQQVKDDIAQLLNKDWRAAISSCELLLSETSGTLRELQDTLEAAGDKLQANLLRIQDATMTHDDLHFVDRLVFDLQSKLDRIISWGQQSIDLWIGYDRHVHKFIRTAIDMDKNRVFAQRLRQSVQTYFDEPWALTYANADRLLDMRDEEMALRDEEVTGELPEDLEYEEFNEIREQLAAIIEEQLAVYKTRQVPLDLGLVVREYLSQYPRARHFDVARIVIDQAVRLGVAQADFTGLPAKWQPINDYGAKVQAHVIDKY | binds | binds
MukE (MukE-His) (natural protein, Escherichia coli, UniProt P22524 1-234, looked up, MukE, the KITE protein of Escherichia coli MukBEF; The end of the tag is read from the printed name 'MukE-His'; also called KITE protein MukE; source: E. coli C3013I (NEB), pET vector, purified (TALON, HiTrap DEAE FF, Superdex 200)) MSSTNIEQVMPVKLAQALANPLFPALDSALRSGRHIGLDELDNHAFLMDFQEYLEEFYARYNVELIRAPEGFFYLRPRSTTLIPRSVLSELDMMVGKILCYLYLSPERLANEGIFTQQELYDELLTLADEAKLLKLVNNRSTGSDVDRQKLQEKVRSSLNRLRRLGMVWFMGHDSSKFRITESVFRFGADVRAGDDPREAQRRLIRDGEAMPIENHLQLNDETEENQPDSGEEE |  | binds
